Patent publication US20120034160A1 (AbbVie / Abbott, published 2012)

T1: Recombinant Human IL-17 (human, UniProt Q16552 20-155, limits assumed)
T1 sequence (looked up): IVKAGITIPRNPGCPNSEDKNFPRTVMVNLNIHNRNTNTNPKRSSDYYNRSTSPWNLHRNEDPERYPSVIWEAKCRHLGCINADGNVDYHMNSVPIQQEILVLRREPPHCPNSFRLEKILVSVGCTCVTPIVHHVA

B1: DVD1278 (bispecific antibody, human IgG1, kappa)
heavy: not shown
light: DTVVTQSPAFLSVTPGEKVTITCITSTDIDVDMNWYQQKPDQPPKLLISQGNTLRPGVPSRFSSSGSGTDFTFTISSLEAEDAATYYCLQSDNLPLTFGQGTKLEIKRTVAAPEIVLTQSPDFQSVTPKEKVTITCRASQDIGSELHWYQQKPDQPPKLLIKYASHSTSGVPSRFSGSGSGTDFTLTINGLEAEDAGTYYCHQTDSLPYTFGPGTKVDIKRTVAAPSVFIFPPSDEQLKSGTASVVCLLNNFYPREAKVQWKVDNALQSGNSQESVTEQDSKDSTYSLSSTLTLSKADYEKHKVYACEVTHQGLSSPVTKSFNRGEC
B2: DVD1270 (bispecific antibody, human IgG1, kappa)
heavy: not shown
light: ETTVTQSPSSLSASVGDRVTITCITSTDIDVDMNWYQQKPGKPPKLLISQGNTLRPGVPSRFSSSGSGTDFTFTISSLQPEDFATYYCLQSDNLPLTFGQGTKLEIKRTVAAPDIQMTQSPSSLSASVGDRVTITCRASSGIISYIDWFQQKPGKAPKRLIYATFDLASGVPSRFSGSGSGTDYTLTISSLQPEDFATYYCRQVGSYPETFGQGTKLEIKRTVAAPSVFIFPPSDEQLKSGTASVVCLLNNFYPREAKVQWKVDNALQSGNSQESVTEQDSKDSTYSLSSTLTLSKADYEKHKVYACEVTHQGLSSPVTKSFNRGEC
B3: DVD1276 (bispecific antibody, human IgG1, kappa)
heavy: not shown
light: DTQVTQSPSSLSASVGDRVTITCITSTDIDVDMNWYQQKPGKPPKLLISQGNTLRPGVPSRFSSSGSGTDFTFTISSLQPEDFATYYCLQSDNLPLTFGQGTKLEIKRTVAAPEIVLTQSPDFQSVTPKEKVTITCRASQDIGSELHWYQQKPDQPPKLLIKYASHSTSGVPSRFSGSGSGTDFTLTINGLEAEDAGTYYCHQTDSLPYTFGPGTKVDIKRTVAAPSVFIFPPSDEQLKSGTASVVCLLNNFYPREAKVQWKVDNALQSGNSQESVTEQDSKDSTYSLSSTLTLSKADYEKHKVYACEVTHQGLSSPVTKSFNRGEC
B4: DVD1280 (bispecific antibody, human IgG1, kappa)
heavy: not shown
light: ETTVTQSPSSLSASVGDRVTITCITSTDIDVDMNWYQQKPGKPPKLLISQGNTLRPGVPSRFSSSGSGTDFTFTISSLQPEDFATYYCLQSDNLPLTFGQGTKLEIKRTVAAPEIVLTQSPDFQSVTPKEKVTITCRASQDIGSELHWYQQKPDQPPKLLIKYASHSTSGVPSRFSGSGSGTDFTLTINGLEAEDAGTYYCHQTDSLPYTFGPGTKVDIKRTVAAPSVFIFPPSDEQLKSGTASVVCLLNNFYPREAKVQWKVDNALQSGNSQESVTEQDSKDSTYSLSSTLTLSKADYEKHKVYACEVTHQGLSSPVTKSFNRGEC
B5: DVD1272 (bispecific antibody, human IgG1, kappa)
heavy: not shown
light: DIQMTQSPSSLSASVGDRVTITCRASGNIHNYLTWYQQTPGKAPKLLIYNAKTLADGVPSRFSGSGSGTDYTFTISSLQPEDIATYYCQHFWSIPYTFGQGTKLQITRTVAAPEIVLTQSPDFQSVTPKEKVTITCRASQDIGSELHWYQQKPDQPPKLLIKYASHSTSGVPSRFSGSGSGTDFTLTINGLEAEDAGTYYCHQTDSLPYTFGPGTKVDIKRTVAAPSVFIFPPSDEQLKSGTASVVCLLNNFYPREAKVQWKVDNALQSGNSQESVTEQDSKDSTYSLSSTLTLSKADYEKHKVYACEVTHQGLSSPVTKSFNRGEC
B6: DVD1282 (bispecific antibody, human IgG1, kappa)
heavy: not shown
light: DIQMTQSPSSLSASVGDRVTITCRASGNIHNYLTWYQQTPGKAPKLLIYNAKTLADGVPSRFSGSGSGTDYTFTISSLQPEDIATYYCQHFWSIPYTFGQGTKLQITRTVAAPEIVLTQSPDFQSVTPKEKVTITCRASQNIGSELHWYQQKPDQSPKLLIKYASHSISGVPSRFSGSGSGTDFTLTINGLEAEDAATYYCHQSDTLPHTFGQGTKVDIKRTVAAPSVFIFPPSDEQLKSGTASVVCLLNNFYPREAKVQWKVDNALQSGNSQESVTEQDSKDSTYSLSSTLTLSKADYEKHKVYACEVTHQGLSSPVTKSFNRGEC
B7: DVD1274 (bispecific antibody, human IgG1, kappa)
heavy: not shown
light: DIQMTQSPSSLSASVGDRVTITCRASGNIHNYLTWYQQTPGKAPKLLIYNAKTLADGVPSRFSGSGSGTDYTFTISSLQPEDIATYYCQHFWSIPYTFGQGTKLQITRTVAAPEIVLTQSPDFQSVTPKEKVTITCRASQDIGSELHWYQQKPDQPPKLLIKYASHSTSGVPSRFSGSGSGTDFTLTINGLEAEDAGTYYCHQTDSLPYTFGPGTKVDIKRTVAAPSVFIFPPSDEQLKSGTASVVCLLNNFYPREAKVQWKVDNALQSGNSQESVTEQDSKDSTYSLSSTLTLSKADYEKHKVYACEVTHQGLSSPVTKSFNRGEC
B8: DVD1277 (bispecific antibody, human IgG1, kappa)
heavy: not shown
light: EIVLTQSPDFQSVTPKEKVTITCRASQDIGSELHWYQQKPDQPPKLLIKYASHSTSGVPSRFSGSGSGTDFTLTINGLEAEDAGTYYCHQTDSLPYTFGPGTKVDIKRTVAAPDTQVTQSPSSLSASVGDRVTITCITSTDIDVDMNWYQQKPGKPPKLLISQGNTLRPGVPSRFSSSGSGTDFTFTISSLQPEDFATYYCLQSDNLPLTFGQGTKLEIKRTVAAPSVFIFPPSDEQLKSGTASVVCLLNNFYPREAKVQWKVDNALQSGNSQESVTEQDSKDSTYSLSSTLTLSKADYEKHKVYACEVTHQGLSSPVTKSFNRGEC
B9: DVD1281 (bispecific antibody, human IgG1, kappa)
heavy: not shown
light: EIVLTQSPDFQSVTPKEKVTITCRASQDIGSELHWYQQKPDQPPKLLIKYASHSTSGVPSRFSGSGSGTDFTLTINGLEAEDAGTYYCHQTDSLPYTFGPGTKVDIKRTVAAPETTVTQSPSSLSASVGDRVTITCITSTDIDVDMNWYQQKPGKPPKLLISQGNTLRPGVPSRFSSSGSGTDFTFTISSLQPEDFATYYCLQSDNLPLTFGQGTKLEIKRTVAAPSVFIFPPSDEQLKSGTASVVCLLNNFYPREAKVQWKVDNALQSGNSQESVTEQDSKDSTYSLSSTLTLSKADYEKHKVYACEVTHQGLSSPVTKSFNRGEC
B10: DVD1271 (bispecific antibody, human IgG1, kappa)
heavy: not shown
light: DIQMTQSPSSLSASVGDRVTITCRASSGIISYIDWFQQKPGKAPKRLIYATFDLASGVPSRFSGSGSGTDYTLTISSLQPEDFATYYCRQVGSYPETFGQGTKLEIKRTVAAPETTVTQSPSSLSASVGDRVTITCITSTDIDVDMNWYQQKPGKPPKLLISQGNTLRPGVPSRFSSSGSGTDFTFTISSLQPEDFATYYCLQSDNLPLTFGQGTKLEIKRTVAAPSVFIFPPSDEQLKSGTASVVCLLNNFYPREAKVQWKVDNALQSGNSQESVTEQDSKDSTYSLSSTLTLSKADYEKHKVYACEVTHQGLSSPVTKSFNRGEC
B11: DVD1279 (bispecific antibody, human IgG1, kappa)
heavy: not shown
light: EIVLTQSPDFQSVTPKEKVTITCRASQDIGSELHWYQQKPDQPPKLLIKYASHSTSGVPSRFSGSGSGTDFTLTINGLEAEDAGTYYCHQTDSLPYTFGPGTKVDIKRTVAAPDTVVTQSPAFLSVTPGEKVTITCITSTDIDVDMNWYQQKPDQPPKLLISQGNTLRPGVPSRFSSSGSGTDFTFTISSLEAEDAATYYCLQSDNLPLTFGQGTKLEIKRTVAAPSVFIFPPSDEQLKSGTASVVCLLNNFYPREAKVQWKVDNALQSGNSQESVTEQDSKDSTYSLSSTLTLSKADYEKHKVYACEVTHQGLSSPVTKSFNRGEC
B12: DVD1273 (bispecific antibody, human IgG1, kappa)
heavy: not shown
light: EIVLTQSPDFQSVTPKEKVTITCRASQDIGSELHWYQQKPDQPPKLLIKYASHSTSGVPSRFSGSGSGTDFTLTINGLEAEDAGTYYCHQTDSLPYTFGPGTKVDIKRTVAAPDIQMTQSPSSLSASVGDRVTITCRASGNIHNYLTWYQQTPGKAPKLLIYNAKTLADGVPSRFSGSGSGTDYTFTISSLQPEDIATYYCQHFWSIPYTFGQGTKLQITRTVAAPSVFIFPPSDEQLKSGTASVVCLLNNFYPREAKVQWKVDNALQSGNSQESVTEQDSKDSTYSLSSTLTLSKADYEKHKVYACEVTHQGLSSPVTKSFNRGEC
B13: DVD1275 (bispecific antibody, human IgG1, kappa)
heavy: not shown
light: EIVLTQSPDFQSVTPKEKVTITCRASQDIGSELHWYQQKPDQPPKLLIKYASHSTSGVPSRFSGSGSGTDFTLTINGLEAEDAGTYYCHQTDSLPYTFGPGTKVDIKRTVAAPDIQMTQSPSSLSASVGDRVTITCRASGNIHNYLTWYQQTPGKAPKLLIYNAKTLADGVPSRFSGSGSGTDYTFTISSLQPEDIATYYCQHFWSIPYTFGQGTKLQITRTVAAPSVFIFPPSDEQLKSGTASVVCLLNNFYPREAKVQWKVDNALQSGNSQESVTEQDSKDSTYSLSSTLTLSKADYEKHKVYACEVTHQGLSSPVTKSFNRGEC
B14: DVD1283 (bispecific antibody, human IgG1, kappa)
heavy: not shown
light: EIVLTQSPDFQSVTPKEKVTITCRASQNIGSELHWYQQKPDQSPKLLIKYASHSISGVPSRFSGSGSGTDFTLTINGLEAEDAATYYCHQSDTLPHTFGQGTKVDIKRTVAAPDIQMTQSPSSLSASVGDRVTITCRASGNIHNYLTWYQQTPGKAPKLLIYNAKTLADGVPSRFSGSGSGTDYTFTISSLQPEDIATYYCQHFWSIPYTFGQGTKLQITRTVAAPSVFIFPPSDEQLKSGTASVVCLLNNFYPREAKVQWKVDNALQSGNSQESVTEQDSKDSTYSLSSTLTLSKADYEKHKVYACEVTHQGLSSPVTKSFNRGEC

Legend:
Recombinant Human IL-1β = Recombinant Human IL-1β (human, UniProt P01584 117-269); test: cell-based or functional assay
Recombinant Human IL-17 = target: T1, Recombinant Human IL-17; test: cell-based or functional assay

Row | Binder | N-Terminal VD IL-1β Neutralization Assay EC50 (Recombinant Human IL-1β) [nM] | C-terminal VD IL-17 Neutralization Assay EC50 (Recombinant Human IL-17) [nM] | C-Terminal VD IL-1β Neutralization Assay EC50 (Recombinant Human IL-1β) [nM] | N-terminal VD IL-17 Neutralization Assay EC50 (Recombinant Human IL-17) [nM]
1 | B1 | 0.145 | 0.346 |  | 
2 | B2 | 0.265 | 0.0407 |  | 
3 | B3 | 0.168 | 1.21 |  | 
4 | B4 | 0.149 | 0.256 |  | 
5 | B5 | 0.0139 | 0.346 |  | 
6 | B6 | 0.0091 | > 20 |  | 
7 | B7 | 0.0068 | 1.08 |  | 
8 | B8 |  |  | > 20 | 0.0092
9 | B9 |  |  | > 150 | 0.0027
10 | B10 |  |  | > 30 | 0.0109
11 | B11 |  |  | > 200 | 0.0052
12 | B12 |  |  | 18.4 | 0.0013
13 | B13 |  |  | 1.92 | 0.0006
14 | B14 |  |  | 7.61 | 0.0238
